Molecular target: T1, α-CT coiled-coil domain fused with HIS tag (α-CT-His), fluorescently labeled (Arabidopsis thaliana, fluorescently labeled using His-tag labeling kit (NanoTemper, MO-L008))
T1 construct: α-carboxyltransferase (α-CT), Arabidopsis thaliana, At2g38040, C-terminus / coiled-coil domain; also called C-terminus of α-CT; labeled α-CT coiled-coil domain; source: expressed in Luria Broth with IPTG (pET30a), purified on nickel agarose resin
Assay: MST; 100 nM α-CT-His labeled with His-tag labeling kit, mixed with serial dilutions of CTI in PBS buffer; 100% LED power, high MST power, NanoTemper Monolith NT.115
Conditions: both partners purified

fold higher affinity than CTI2 (from KD values): 100 fold
fold higher affinity than CTI3 (from KD values): 10 fold
B1: coiled-coil domain of CTI1 fused with HIS tag (domain or fragment)
chain: PQISKAIAGADRKDLMRKLPKFIYDEEKALEKTRKVLAEKIAQLNSAIDDVSSQLKSEDTPNGAALSTDEIEATA

From article PMC7712654, “Docking of acetyl-CoA carboxylase to the plastid envelope membrane attenuates fatty acid production in plants” (Nature Communications, 2020)
